From the supplement of paper PMC6755084

System: F1*sub RNA substrate (template-directed ligation)
Assay: fraction ligated after 30 min (ligated reads / total reads); higher = more ligase activity; sequences stand for … in GAGACCGCAACTGAAAAGTTGT…AGTTCTGCACGTAGAAGCAAAAGGC
Settings: 42 °C
Procedure, shortened: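 Templates from an oligo pool were PCR-amplified, transcribed with T7 and gel-purified to give the ribozyme variants. Ligated and unligated products were separated on gel, reverse transcribed using barcoded primers, and read on a MiSeq. A quality filter of ≥20 was applied to core bases. Fraction ligated was taken as ligated reads as a share of all reads per variant.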

For “TATCACTGCGTAAGAACTTTGGATGGGTTGA [3d1333]”, which fraction ligated is on record?
The fraction ligated was 0.842.

With TACACTTTCGTAGACACTTTGGATGGGTTGA [3d588] as the sequence, how does the fraction ligated read?
Its fraction ligated is 0.0222.

With “TATCACTTGTCTAAGACATTTGGATGGGTTA [3d1876]” as the sequence, how does the fraction ligated read?
Its fraction ligated is 0.793.

With TTCACTTGTCGTAAGACACTTGGAGGGTTGA [3d487] as the sequence, how does the fraction ligated read?
Its fraction ligated is 0.0171.

ATCACTTGTCGTAAGACACTTTGGGGGTTGA [3d266] was tested. Which fraction ligated did it give?
Its fraction ligated is 0.0143.

Which fraction ligated does the source give for “TATCACTTGTCTAAGACACTTGGATGGGTTG [3d1884]” here?
Its fraction ligated is 0.781.

With “TATCACTTGTCGTAAGACATTTGGATGGGTT [3d2229]” as the sequence, how does the fraction ligated read?
The fraction ligated was 0.73.

Which fraction ligated does the source give for “TATCACTTGTGTAAGAACTTTGGAGGGTTGA [3d1768]” here?
Its fraction ligated is 0.0385.

With “TATCACTGTCGTAAGAACTTTGGATGGGTTG [3d1425]” as the sequence, how does the fraction ligated read?
The fraction ligated was 0.87.

With “TATCACTGTCGTAAGACACTTTGGATGGGTTG [2d146]” as the sequence, how does the fraction ligated read?
Its fraction ligated is 0.798.

How did the fraction ligated turn out when “TATCACTTGTCGTAAGAATTTGGTGGGTTGA [3d2154]” was run?
Its fraction ligated is 0.135.

With “TATCATTGCGTAAACACTTTGGATGGGTTGA [3d1160]” as the sequence, how does the fraction ligated read?
Its fraction ligated is 0.814.

For “TATCACTTTCGTAAGACACTTTGGATGGGTTG [2d162]”, which fraction ligated is on record?
The fraction ligated was 0.777.

For TTCACTTGTCGTGACACTTTGGATGGGTTGA [3d429], which fraction ligated is on record?
The fraction ligated was 0.255.

TACACTTGTCGTAAGCACTTTGATGGGTTGA [3d686] was tested. Which fraction ligated did it give?
The fraction ligated was 0.0278.

How did the fraction ligated turn out when ATACTTGTCGTAAGACACTTTGGATGGTTGA [3d64] was run?
The fraction ligated was 0.21.

TATCCTGTCGTAGACACTTTGGATGGGTTGA [3d955] was tested. Which fraction ligated did it give?
Its fraction ligated is 0.779.

“TATCATTGTCGTAGAACTTTGGATGGGTTGA [3d1217]” was tested. Which fraction ligated did it give?
Its fraction ligated is 0.864.

With “TATCACTTGTCTAGACACTTTGGATGGGTTA [3d1834]” as the sequence, how does the fraction ligated read?
The fraction ligated was 0.738.

“TATCACTTCGAAGACACTTTGGATGGGTTGA [3d1313]” was tested. Which fraction ligated did it give?
The fraction ligated was 0.803.

For TACACTTGTCGTAAGACCTTGGATGGGTTGA [3d700], which fraction ligated is on record?
The fraction ligated was 0.222.

How did the fraction ligated turn out when “TATCATTGCTAAGACACTTTGGATGGGTTGA [3d1157]” was run?
Its fraction ligated is 0.784.

“TATCACTTGTCTAAACATTTGGATGGGTTGA [3d1838]” was tested. Which fraction ligated did it give?
The fraction ligated was 0.841.

With ATCACTTGCGTAAGACACTTGGATGGGTTGA [3d149] as the sequence, how does the fraction ligated read?
The fraction ligated was 0.726.

For ATCACTGTCGTAAGACACTTTGGAGGGTTGA [3d120], which fraction ligated is on record?
The fraction ligated was 0.148.

“TATCACTGTCGAAGACACTTTGGATGGTTGA [3d1382]” was tested. Which fraction ligated did it give?
The fraction ligated was 0.336.

How did the fraction ligated turn out when ATCACTGTCTAAGACACTTTGGATGGGTTGA [3d109] was run?
Its fraction ligated is 0.756.

“TATCACTTGTCGTAAGACCTTTGGATGGGTT [3d2205]” was tested. Which fraction ligated did it give?
The fraction ligated was 0.744.

Which fraction ligated does the source give for “TATCATTGTCGTAAGACACTTTGGGGGTTGA [3d1282]” here?
The fraction ligated was 0.0386.

With “TATCCTTGTCGTAAGACCTTTGGTGGGTTGA [3d1085]” as the sequence, how does the fraction ligated read?
The fraction ligated was 0.212.

How did the fraction ligated turn out when “TATCACTTGTCTAAGACACTTTGGATGGGTTG [2d207]” was run?
Its fraction ligated is 0.825.

How did the fraction ligated turn out when “TATCATTGTGAAGACACTTTGGATGGGTTGA [3d1173]” was run?
Its fraction ligated is 0.824.

For “TATCACTTGTCGTAAGCACTTTGATGGTTGA [3d2138]”, which fraction ligated is on record?
Its fraction ligated is 0.157.

With ATATTGTCGTAAGACACTTTGGATGGGTTGA [3d47] as the sequence, how does the fraction ligated read?
The fraction ligated was 0.0915.

For TATACTTGTCGTAGACATTTGGATGGGTTGA [3d875], which fraction ligated is on record?
The fraction ligated was 0.759.

“TATCACTTGTCTAAGACATTGGATGGGTTGA [3d1871]” was tested. Which fraction ligated did it give?
The fraction ligated was 0.796.

“TATCATTGTCGAAGACACTTGGATGGGTTGA [3d1207]” was tested. Which fraction ligated did it give?
Its fraction ligated is 0.771.

With ATCACTTGTCGTAAGCACTTTGGAGGGTTGA [3d227] as the sequence, how does the fraction ligated read?
The fraction ligated was 0.0599.

For ATCACTTGTGTAAGAACTTTGGATGGGTTGA [3d161], which fraction ligated is on record?
Its fraction ligated is 0.88.

Which fraction ligated does the source give for TATCCTTGGTAAGACACTTTGGATGGGTTGA [3d984] here?
The fraction ligated was 0.796.

Which fraction ligated does the source give for TTACTTGTCGTAAGACACTTTGGATGGGTTGA [2d25] here?
The fraction ligated was 0.419.

With TACACTTGTCGAAGACACTTTGGATGGTTGA [3d656] as the sequence, how does the fraction ligated read?
The fraction ligated was 0.505.

For “TATCACTTGTCTAAGCCTTTGGATGGGTTGA [3d1847]”, which fraction ligated is on record?
The fraction ligated was 0.776.

How did the fraction ligated turn out when ATCCTTGTCGTAAACACTTTGGATGGGTTGA [3d74] was run?
Its fraction ligated is 0.789.

With TACCTTGTCGTAAGAACTTTGGATGGGTTGA [3d537] as the sequence, how does the fraction ligated read?
The fraction ligated was 0.253.

For “TATCACTTGTCGTAGACATTGGATGGGTTGA [3d2028]”, which fraction ligated is on record?
Its fraction ligated is 0.815.

How did the fraction ligated turn out when ATCACTTGCTAAGACACTTTGGATGGGTTGA [3d141] was run?
The fraction ligated was 0.763.

How did the fraction ligated turn out when “TATCACTTGTCGTAACACTTTGGATGGGTTG [3d2002]” was run?
The fraction ligated was 0.806.

How did the fraction ligated turn out when ATCACTTGTCTAAGACCTTTGGATGGGTTGA [3d176] was run?
Its fraction ligated is 0.717.

Which fraction ligated does the source give for “TATCACTTTCGAAGCACTTTGGATGGGTTGA [3d1495]” here?
Its fraction ligated is 0.766.

With TACACTGTGTAAGACACTTTGGATGGGTTGA [3d569] as the sequence, how does the fraction ligated read?
The fraction ligated was 0.632.

With “TATCACTTGTCGAGACACTTTGGAGGGTTGA [3d1911]” as the sequence, how does the fraction ligated read?
Its fraction ligated is 0.104.

For “TATCACTTGTCGAAGACATTTGGTGGGTTGA [3d1952]”, which fraction ligated is on record?
The fraction ligated was 0.05.

How did the fraction ligated turn out when TATACTTGTCGTAAGCACTTTGGAGGGTTGA [3d899] was run?
The fraction ligated was 0.0271.

With TTCACTTGTCGTAAGACATTTGGATGGGTTA [3d482] as the sequence, how does the fraction ligated read?
The fraction ligated was 0.167.

How did the fraction ligated turn out when “TATCCTTGTCAAGACACTTTGGATGGGTTGA [3d1015]” was run?
Its fraction ligated is 0.791.

Which fraction ligated does the source give for “TATCATTTCGTAAGACACTTTGATGGGTTGA [3d1150]” here?
Its fraction ligated is 0.799.

For TACACTTGTCGTAAACCTTTGGATGGGTTGA [3d673], which fraction ligated is on record?
Its fraction ligated is 0.0569.

Which fraction ligated does the source give for TACACTTTGTAAGACACTTTGGATGGGTTGA [3d585] here?
The fraction ligated was 0.0938.

For “TATCACTTGTCGAAGACCTTTGGATGGTTGA [3d1947]”, which fraction ligated is on record?
The fraction ligated was 0.299.

For “TATCACTTGTCGTGACACTTTGGAGGGTTGA [3d1989]”, which fraction ligated is on record?
Its fraction ligated is 0.0822.

With “TATCACGTCGTAAACACTTTGGATGGGTTGA [3d1299]” as the sequence, how does the fraction ligated read?
Its fraction ligated is 0.787.

How did the fraction ligated turn out when ATCCTTGTCGTAAGACACTTTGGAGGGTTGA [3d82] was run?
The fraction ligated was 0.1.

How did the fraction ligated turn out when “TATCACTTGTCGTGACCTTTGGATGGGTTGA [3d1984]” was run?
Its fraction ligated is 0.784.

For “TATCACTTGCGTAGACACTTGGATGGGTTGA [3d1632]”, which fraction ligated is on record?
Its fraction ligated is 0.779.

For “TATCACTTGCGTAAGACACTTTATGGGTTGA [3d1688]”, which fraction ligated is on record?
Its fraction ligated is 0.12.

TTCACTTGTCGTAAGACACTTTGGAGGGTTA [3d502] was tested. Which fraction ligated did it give?
Its fraction ligated is 0.0179.

TACACTTGTCTAAGACACTTGGATGGGTTGA [3d639] was tested. Which fraction ligated did it give?
The fraction ligated was 0.087.

TTCACTTGTCGTAAGACCTTTGGAGGGTTGA [3d473] was tested. Which fraction ligated did it give?
The fraction ligated was 0.073.

How did the fraction ligated turn out when TATACTTGTGTAAGACACTTTGGATGGGTTG [3d842] was run?
Its fraction ligated is 0.809.

With “TATCATTGTCGTAACACTTTGGATGGGTTGA [3d1215]” as the sequence, how does the fraction ligated read?
The fraction ligated was 0.815.

How did the fraction ligated turn out when “TATCACTTGTGTAAGACATTTGGATGGGTTG [3d1785]” was run?
Its fraction ligated is 0.838.

“TATCACTTGTCGAAACACTTTGGATGGGTTG [3d1924]” was tested. Which fraction ligated did it give?
Its fraction ligated is 0.817.

With ATCACTTGTCGAAGCACTTTGGATGGGTTGA [3d187] as the sequence, how does the fraction ligated read?
The fraction ligated was 0.736.

ATCACTTGTCGTAGACACTTTGGTGGGTTGA [3d206] was tested. Which fraction ligated did it give?
Its fraction ligated is 0.0928.

With TATACTTGTCGTAAGACATTTGGATGGGTTA [3d923] as the sequence, how does the fraction ligated read?
The fraction ligated was 0.0964.

For “TATCCTTGTCGTAAGCCTTTGGATGGGTTGA [3d1066]”, which fraction ligated is on record?
The fraction ligated was 0.75.

How did the fraction ligated turn out when ATCACTTGTCGTAAGACCTTTGGAGGGTTGA [3d242] was run?
Its fraction ligated is 0.04.

For “TATCATTGTCGTAAGACACTTGGTGGGTTGA [3d1271]”, which fraction ligated is on record?
Its fraction ligated is 0.482.

Which fraction ligated does the source give for TACACTGTCGTAAGACACTTTGGTGGGTTGA [3d580] here?
The fraction ligated was 0.151.

Which fraction ligated does the source give for “TATCACTTTCTAAGACCTTTGGATGGGTTGA [3d1484]” here?
The fraction ligated was 0.783.

With “TATCACTTGTGAAGACATTTGGATGGGTTGA [3d1723]” as the sequence, how does the fraction ligated read?
The fraction ligated was 0.855.

Which fraction ligated does the source give for TATACTTGTCGTAGACACTTTGGATGGGTTGA [2d77] here?
The fraction ligated was 0.67.
